In patent publication US7262177B2, “Conjugates of glycosylated/galactosylated peptide, bifunctional linker, and nucleotidic monomers/polymers, and related compositions and methods of use” (priority 2000, dated 2007):
Several values for one entry are separate records, joined by “and”; a condition that tells them apart may be missing. Identical values can stand only once.

How the values were obtained:
[1] = tested on: Hep G2 human hepatoma xenografts; experiment: Bioefficacy against human hepatoma (Hep G2) xenografts in nude mice; format: in vivo, CD-1 nude mice
Source text: Xenotransplanted tumors have been previously shown to be responsive to 5FU chemotherapy as assayed by direct physical measurement of the tumor (Houghton et al., Biochem. Pharmacol., 36, 1285-1289 (1987)), histological changes and biochemical measurements, such as alpha-fetoprotein (AFP) levels (Lemoine et al., Pathol. Biol. (Paris), 47, 903-910 (1999)) and thymidylate synthase levels (Peters et al., J. Clin Oncol., 12, 2035-2042 (1994)). The xenograft tumors in nude mice are a widely used model for tumor studies that allows for direct measurement of the growth of human tumors. Male CD-1 nude mice (6-8 weeks old, 20-22 g in weight) were used for these bioefficacy studies. An injection of 10^8 Hep G2 cells was made subcutaneously into the subcapsular region of each mouse. Mice were observed daily for tumor formation. After tumors emerged, they were measured twice a week in two dimensions with sliding calipers. When the tumors reached a weight of 100 mg in weight as determined by the formula: [(weight, mg)=(length (mm)×width (mm))^2/2], treatment was initiated (Geran et al., Cancer Chemother. Rep., 3, 51-61 (1972)). Initially, mice were treated with 10 mg/kg dose once/week for 8 weeks. Subsequently, separate cohorts of mice were treated with 15 mg/kg weekly for 8 weeks and finally 10 mg/kg twice weekly for 8 weeks. The impact of treatment upon tumor growth was judged by direct measurement as described above. In addition, tumor progression was tracked by serological measurements, such as AFP levels. AFP levels were assayed weekly following each injection. Blood was taken retro-orbitally from each mouse. AFP levels were assayed immunochemically, using kits supplied by Abbott Laboratories (Waukegan, Ill.) and based on the methods of Wang et al. (Cancer Res., 50, 869s-872s (1990)). Measurements of AFP levels were intended to complement direct physical measurement as an indicator of tumor progression. Generally, serum AFP levels behave as if they reflect tumor mass. However, it should be noted that moderately raised AFP levels have been found in some patients with uncomplicated liver disease. Despite these false positives, serum AFP levels have been successfully used to monitor response to therapy (Johnson, J. Gastroent Hepatol., 14 (Suppl.), s32-s36 (1999)) especially in the tumor-bearing nude mice, where the human tumor is the only source of human AFP. Results from such assays provide an early indication of HCC potential before it is manifested as physical tumor growth. The data generated by the above experiments should aid in the derivation of starting doses for larger mammal testing and subsequent clinical studies.

[2] = Serum stability of po 1-mer conjugate, HPLC method (a), column 1; format: in vitro ADME; details: 37° C.; for Average Peak area / Trial Peak area: human serum
Protocol: (§1) Studies were carried out at physiological conditions. The analyses were accomplished using reversed-phase HPLC and PAGE methods. The raw data are presented in table format (Tables 1, 2 and 3). The serum half-life calculated is t1/2=1/k (0.693), derived from the [A]=[A0]e^−kt, where [A0] is the original amount of substrate, [A] is the measured substrate level, t is time (min), and k is the first-order rate constant.
(a) Reaction Conditions: 50 μl of human serum were added to 24 nmoles of HPLC purified po 1-mer Conjugate and incubated at 37° C. for allotted time periods (0 min, 60 min, 180 min, 360 min). Column 1: flow 1.0 ml/min, Rainin MicroSorb C18 reversed-phase column HPLC gradient: 100% NH4OAc for 10 min, then 0→100% CH3CN in 25 min. (0.1 M NH4OAc) (Table 1).

[3] = Serum stability of po 1-mer conjugate, HPLC method (b), column 2; format: in vitro ADME; details: 37° C.; for Average Peak area / Trial Peak area: human serum
Protocol: as §1
(b) Reaction Conditions: 100 μl of human serum were added to 20 nmoles of HPLc purified po 1-mer Conjugate and incubated at 37° C. for allotted time periods (0 min, 15 min, 60 min, 120 min, 240 min). HPLC gradient: 100% Buffer A (0.05M NaxPO4 (pH 5.8) in 2% CH3CN) for 5 min, then 2% CH3CN to 50% CH3CN over the next 20 min. Column 2: flow 4.7 ml/min, Rainin Semi-Preparative C18 reversed-phase column (10 mm i.d.×250 mm L) (Table 2).

[4] = tested on: TSU carcinoma cells; experiment: Viability of TSU carcinoma cells; format: cell-based, human; details: TSU carcinoma cells treated with conjugate
[5] = 10 mg/kg twice weekly, after 3 weeks
[6] = 0 min, listed as po 1-mer Conjugate

CC(=O)N[C@H]1[C@H](OCCCCCCNC(=O)CC[C@H](NC(=O)CC[C@H](NC(=O)[C@H](Cc2ccc(O)cc2)NC(=O)C2CCC(CN3C(=O)CC(SCCCCCCOP(=O)(O)OC[C@H]4O[C@@H](n5cc(F)c(=O)[nH]c5=O)C[C@@H]4O)C3=O)CC2)C(=O)NCCCCCCO[C@@H]2O[C@H](CO)[C@H](O)[C@H](O)[C@H]2NC(C)=O)C(=O)NCCCCCCO[C@@H]2O[C@H](CO)[C@H](O)[C@H](O)[C@H]2NC(C)=O)O[C@H](CO)[C@H](O)[C@@H]1O (stereo partly shown) [po 1-mer, YEE(ahGalNAc)3-SMCC-poFU]
body weight [1, 5]: moderate reduction in body weight | tumor progression [1, 5]: significant reduction in tumor progression | tumors ([1]; 10 mg/kg twice weekly, after 6 weeks): beyond detection | effect on tumor growth ([1]; 10 mg/kg weekly for 8 weeks): mild inhibition of tumor growth | histological analysis of tumors ([1]; 10 mg/kg weekly, after 8 weeks): reduced mitotic index and increased amount of necrotic tissue | average tumor weight ([1]; 10 mg/kg weekly, at 8 weeks (saline control about 15 g)): about 7 g | body weight (clinical toxicity) ([1]; 15 mg/kg weekly): steady weight gain equivalent to that of a non-tumor bearing mice | tumor burden ([1]; 15 mg/kg weekly, after 2 additional injections (7)): tumor burden was eradicated in one mouse and the tumor size was reduced in the others | tumor progression ([1]; 15 mg/kg weekly, after 5 injections): almost static | histological analysis of tumor ([1]; 15 mg/kg weekly, after treatment): very low mitotic index and extensive necrosis | Average Peak area ([2]; 0 min): 17.78 | Trial Peak area [2, 6]: 17.65 and 17.92 | Average Peak area ([2]; 60 min): 13.77 | Trial Peak area ([2]; 60 min, listed as po 1-mer Conjugate): 15.11 and 12.43 | Average Peak area ([2]; 180 min): 10.17 | Trial Peak area ([2]; 180 min, listed as po 1-mer Conjugate): 9.356 and 10.9908 | Average Peak area ([2]; 360 min): 11.4 | Trial Peak area ([2]; 360 min): 11.4 | half-life at 480 µM ([2]; human, serum, HPLC (a), read-out: serum t1/2): 9.62 h | Average Peak area ([3]; 0 min): 13.57 | Trial Peak area [3, 6]: 13.07 and 12.68 and 14.97 | Average Peak area ([3]; 15 min): 14.86 | Trial Peak area ([3]; 15 min): 14.86 | Average Peak area ([3]; 60 min): 14.22 | Trial Peak area ([3]; 60 min): 14.22 | Average Peak area ([3]; 120 min): 11.96 | Trial Peak area ([3]; 120 min): 11.96 | Average Peak area ([3]; 240 min): 9.727 | Trial Peak area ([3]; 240 min): 9.727 | half-life at 200 µM ([3]; human, serum, HPLC (b), read-out: serum t1/2): 6.78 h | viability of cells [4]: not affected
